Source: patent US20250340857A1 (SEISMIC THERAPEUTIC, published 2025)
Changes are numbered by the printed parent chain.

B1: FP134 (Fc fusion)
chain: DKTHTCPPCPAPEAAGAPSVFLFPPKPKDTLMISRTPEVTCVVVDVSHEDPEVKFNWYVDGVEVHNAKTKPREEQQNSTYRVVSVLTVLHQDWLNGKEYKCKVSNKALKAPIEKTISKAKGQPREPQVYTLPPSRDELTKNQVSLTCLVKGFYPSDIAVEWESNGQPENNYKTTPPVLDSDGSFFLYSKLTVDKSRWQQGNVFSCSVMHEALHNHYTQKSLSLSPGGGGSKGGGSKGGGSKTALGRRKAEDRIKETLWADGVKIDEKDFEHIKSSHEDYFAVEYGKGSGYYDVNKKMDSEDTALCVGAVVTNMFHWWVDQNRENIEKFKKQDPENNGVMKFEGVKEATVDELNEFYRDNRDNYADQSRFFDLIKKHFGNKALNPEELFELYFNGFYYGSSHRYIEDNEPAQNNLFSKVLENNKLLNPERSYGIDGFSNNVINALKSHKVLGLVYTTPLRYRHIISMWGADIDQDGKVKAIYVTDSDDREITFNDNSKRRIGMIRYDVLVDDNGNIRFTGKGATHKEEGAIYAGLYSLSRGDEVWEDYFKKYPEVQENL
B2: FP137 (Fc fusion)
chain: B1 chain with G228S, G229A, S230G, G233S, G234A, S235G, G238S, G239A, S240G
B3: FP133 (Fc fusion)
chain: DKTHTCPPCPAPEAAGAPSVFLFPPKPKDTLMISRTPEVTCVVVDVSHEDPEVKFNWYVDGVEVHNAKTKPREEQQNSTYRVVSVLTVLHQDWLNGKEYKCKVSNKALKAPIEKTISKAKGQPREPQVYTLPPSRDELTKNQVSLTCLVKGFYPSDIAVEWESNGQPENNYKTTPPVLDSDGSFFLYSKLTVDKSRWQQGNVFSCSVMHEALHNHYTQKSLSLSPGGGGSKGGGSKTALGRRKAEDRIKETLWADGVKIDEKDFEHIKSSHEDYFAVEYGKGSGYYDVNKKMDSEDTALCVGAVVTNMFHWWVDQNRENIEKFKKQDPENNGVMKFEGVKEATVDELNEFYRDNRDNYADQSRFFDLIKKHFGNKALNPEELFELYFNGFYYGSSHRYIEDNEPAQNNLFSKVLENNKLLNPERSYGIDGFSNNVINALKSHKVLGLVYTTPLRYRHIISMWGADIDQDGKVKAIYVTDSDDREITFNDNSKRRIGMIRYDVLVDDNGNIRFTGKGATHKEEGAIYAGLYSLSRGDEVWEDYFKKYPEVQENL
B4: FP136 (Fc fusion)
chain: B3 chain with G228S, G229A, S230G, G233S, G234A, S235G
B5: FP139 (Fc fusion)
chain: B3 chain with G228S, G229S, S230A, K231P, G233S, G234S, S235A, K236P
B6: FP140 (Fc fusion)
chain: DKTHTCPPCPAPEAAGAPSVFLFPPKPKDTLMISRTPEVTCVVVDVSHEDPEVKFNWYVDGVEVHNAKTKPREEQQNSTYRVVSVLTVLHQDWLNGKEYKCKVSNKALKAPIEKTISKAKGQPREPQVYTLPPSRDELTKNQVSLTCLVKGFYPSDIAVEWESNGQPENNYKTTPPVLDSDGSFFLYSKLTVDKSRWQQGNVFSCSVMHEALHNHYTQKSLSLSPGGSSAPGSSAPGSSAPTALGRRKAEDRIKETLWADGVKIDEKDFEHIKSSHEDYFAVEYGKGSGYYDVNKKMDSEDTALCVGAVVTNMFHWWVDQNRENIEKFKKQDPENNGVMKFEGVKEATVDELNEFYRDNRDNYADQSRFFDLIKKHFGNKALNPEELFELYFNGFYYGSSHRYIEDNEPAQNNLFSKVLENNKLLNPERSYGIDGFSNNVINALKSHKVLGLVYTTPLRYRHIISMWGADIDQDGKVKAIYVTDSDDREITFNDNSKRRIGMIRYDVLVDDNGNIRFTGKGATHKEEGAIYAGLYSLSRGDEVWEDYFKKYPEVQENL
B7: FP141 (Fc fusion)
chain 1: DKTHTCPPCPAPEAAGAPSVFLFPPKPKDTLMISRTPEVTCVVVDVSHEDPEVKFNWYVDGVEVHNAKTKPREEQQNSTYRVVSVLTVLHQDWLNGKEYKCKVSNKALKAPIEKTISKAKGQPREPQVYTLPPSRDELTKNQVSLWCLVKGFYPSDIAVEWESNGQPENNYKTTPPVLDSDGSFFLYSKLTVDKSRWQQGNVFSCSVMHEALHNHYTQKSLSLSPGGGGSGGGGSGGGGSTALGRRKAEDRIKETLWADGVKIDEKDFEHIKSSHEDYFAVEYGKGSGYYDVNKKMDSEDTALCVGAVVTNMFHWWVDQNRENIEKFKKQDPENNGVMKFEGVKEATVDELNEFYRDNRDNYADQSRFFDLIKKHFGNKALNPEELFELYFNGFYYGSSHRYIEDNEPAQNNLFSKVLENNKLLNPERSYGIDGFSNNVINALKSHKVLGLVYTTPLRYRHIISMWGADIDQDGKVKAIYVTDSDDREITFNDNSKRRIGMIRYDVLVDDNGNIRFTGKGATHKEEGAIYAGLYSLSRGDEVWEDYFKKYPEVQENL
chain 2: DKTHTCPPCPAPEAAGAPSVFLFPPKPKDTLMISRTPEVTCVVVDVSHEDPEVKFNWYVDGVEVHNAKTKPREEQQNSTYRVVSVLTVLHQDWLNGKEYKCKVSNKALKAPIEKTISKAKGQPREPQVYTLPPSRDELTKNQVSLSCAVKGFYPSDIAVEWESNGQPENNYKTTPPVLDSDGSFFLVSKLTVDKSRWQQGNVFSCSVMHEALHNHYTQKSLSLSPG
B8: FP163 (Fc fusion)
chain: B7 chain 1 with W146T, N511E
B9: FP149 (Fc fusion)
chain: B7 chain 1 with W146T, D510K
B10: FP143 (Fc fusion)
chain: B7 chain 1 with W146T, M208L, N214S
B11: FP159 (Fc fusion)
chain: B7 chain 1 with W146T, D510K, E525N
B12: FP160 (Fc fusion)
chain: B7 chain 1 with W146T, I432R, D510K, E525N, E541K, E544K
B13: FP146 (Fc fusion)
chain: B7 chain 1 with W146T, K374S, K496A
B14: FP164 (Fc fusion)
chain: B7 chain 1 with W146T, H375D
B15: FP158 (Fc fusion)
chain: B7 chain 1 with W146T, E541K, E544K
B16: FP150 (Fc fusion)
chain: B7 chain 1 with W146T, N411G
B17: FP145 (Fc fusion)
chain: B7 chain 1 with W146T, T301S
B18: FP142 (Fc fusion)
chain 1: B7 chain 1 with S134C
chain 2: B7 chain 2 with Y129C
B19: FP144 (Fc fusion)
chain: B7 chain 1 with L89D, Q91H, W146T, N214S
B20: FP147 (Fc fusion)
chain: B7 chain 1 with W146T, H400Q, R458E
B21: FP165 (Fc fusion)
chain 1: B7 chain 1 with M208L, N214S
chain 2: B7 chain 2 with M208L, N214S

Biological target: Human IgE antibody (human)
Assay: cell-based or functional assay

Binder | EC50 CE-SDS IgE | EC50 MSD IgE
B1 | 2.36 nM | –
B2 | 1.28 nM | –
B3 | 1.15 nM | –
B4 | 0.61 nM | –
B5 | 0.11 nM | –
B6 | 0.43 nM | 1.35 nM
B7 | 0.75 nM | 0.874 nM
B8 | 30.5 nM | –
B9 | 0.19 nM | 0.708 nM
B10 | 0.035 nM | 1.63 nM
B11 | 2.45 nM | –
B12 | 4.04 nM | –
B13 | 1.58 nM | –
B14 | 17.4 nM | –
B15 | 0.2 nM | –
B16 | 1.15 nM | 2.2 nM
B17 | 1.45 nM | 0.654 nM
B18 | 3.8 nM | –
B19 | 0.66 nM | –
B20 | 3.1 nM | –
B21 | 29.3 nM | 0.822 nM
